The target in assay [1] is T1, monovalent hVISTA-ECD (human VISTA extracellular domain with His tail) (human, UniProt Q9H7M9 33-193).
T1 construct: analyte flowed over captured antibody; also called huVISTA-His
Put plainly: SPR, pH 7.4.

For assay [2], the target named is T1, monovalent hVISTA-ECD (human VISTA …). Nature of the assay: SPR, pH 7.4. As for the experimental part: (§1) Binding of several preparations of each of the '029 progeny clones and of the parent '029 antibodies, formatted as IgG1.3 antibodies, to human VISTA at pH 6.0 and 7.4 was measured by Surface plasmon resonance (SPR). SPR analysis was performed to measure koff and KD binding affinity measurements for VISTA Abs at acidic and neutral pHs using a Biacore® T100 instrument (GE Healthcare). Protein A (ThermoFisher Scientific catalog #21181) was diluted to 20 ug/ml in 10 mM sodium acetate pH 4.5 and immobilized onto flow cells of a CM5 biosensor following the manufacturer's amine coupling protocol (GE Healthcare), targeting 2,000 RU immobilization density of Protein A per flow cell. SPR experiments were conducted at 37° C. using PBST (137 mM sodium chloride, 2.7 mM potassium chloride, 10 mM phosphate buffer, 0.05% Tween® 20) running buffer at pH 7.4 and 6.0. Antibodies were diluted to 25 nM in PBST pH 7.4, and were captured across active biosensor flow cells at 5 ul/min for 60 seconds. […] Two 15 second injections of 10 mM glycine pH 1.5 were used to regenerate the Protein A capture surface between assay cycles. Rate constants ka (kₒₙ) and kd (koff) were derived from reference flow cell and 0 nM blank-subtracted sensorgrams, and were fit to a 1:1 binding model in Biacore® T200 Evaluation Software v.2.0. The affinity constant, KD was calculated as the ratio of rate constants koff/kₒₙ for each VISTA antibody.
The source holds these as a separate data set.

For assay [3] the target is unchanged. Nature of the assay: SPR. As for the experimental part:
as §1

For assay [4] the target is unchanged. Put plainly: SPR, pH 6.0. Background: In SPR one partner is held on a chip, and binding of the other changes the refractive index at the surface.
The target is the same in assay [5]. Nature of the assay: SPR, pH 7.4. Here is the method: as §1
(§2) This initial campaign led to pH-independent VISTA.4 variants with near equivalent koff at pH 6 and pH 7. In order to obtain an antibody that binds to hVISTA with high affinity at pH 6.0 and low affinity at pH 7.0, a new library based on consensus sequence of pH-independent VISTA.4 variants was designed and constructed, with amino acid residues in the loops substituted for charge amino acid residues (see Example 9), and screened via yeast surface display (see Example 9). The library was analyzed as previously described (see Example 9) and selected variants were reformatted as IgG1.3 for further analysis (Tables 26 and 27). SPR analysis was conducted on these variants using the conditions previously described in Example 9.
This is another data set of the same source.

For assay [6] the target is unchanged. Put plainly: SPR, pH 6.0. As for the experimental part:
as §1
This is another data set of the same source.

Assay [7] has the same target. Nature of the assay: SPR, pH 6.0. Here is the method: as §1, §2
The source holds these as a separate data set.

Assay [8] has the same target. Put plainly: SPR. The source holds these as a separate data set.
The target is the same in assay [9]. Put plainly: SPR, pH 6.0, average. As for the experimental part: as §1, with “antibody. […]” for “antibody.”
Assay [10] shares this target. Put plainly: SPR, pH 7.4, average. As for the experimental part:
as §1
Some of the VISTA.4 mutants described above and new mutants were tested for binding to hVISTA, according to the methods described in Example 9. […] Antibody 41F11_VH_T28P/Y50W/S55E/D95H/L96E/P97E/Y100E; VK_A64G (P1-070976) is the only VISTA.4 derivative that is pH selective.

“And” between values parts separate entries of the source, which are not always exact repeats. Equal values may be shown once.

As a reminder, the Kd is the constant that tells how readily two partners part at equilibrium. Broadly, the koff is a measure of how fast the partners let go of each other. Broadly, the kon is the rate constant with which the complex forms. High values mean faster complex formation, low ones slower complex formation.

B1: P1-065326 (41F11_VH_D31E/Y50W/S55E/L96E/Y100E VK_A64G) (antibody, V domains shown)
VH: QVQLVESGGGLVKPGGSLRLSCAASGFTFSEYYMSWIRQAPGKGLEWVSWISNSGEPIYYADSVKGRFTISRDNAKNSLYLQMNSLRAEDTAVYYCARDEPGWEFDLWGRGTLVTVSS
VL: EIVLTQSPATLSLSPGERATLSCRASQSVSSYLAWYQQKPGQAPRLLIYDASNRATGIPARFSGSGSGTDFTLTISSLEPEDFAVYYCQQRNNWPRTFGQGTKVEIK
notes: Kabat positions; also called P1-065326-1
With B1, the Kd in [1] worked out at 0.986 nM; in assay [2], 0.76 nM; in [4], 0.172 nM; in assay [5], 0.72 nM; in assay [6], 0.12 nM; in assay [7] it was 0.21 nM. Further, the koff in [1] came out at 0.000285 s⁻¹; in assay [2] it was 0.00033 s⁻¹; in assay [4], 0.000603 s⁻¹; in assay [5], 0.00032 s⁻¹; in [6] it was 0.00036 s⁻¹; in assay [7] it was 0.00051 s⁻¹. For the same molecule, the association rate constant (kon) in assay [1] is 289000 M⁻¹ s⁻¹; in assay [2] it was 440000 M⁻¹ s⁻¹; in assay [4] it was 3.52e+06 M⁻¹ s⁻¹; in [5], 450000 M⁻¹ s⁻¹; in assay [6], 2.9e+06 M⁻¹ s⁻¹; in [7], 2.4e+06 M⁻¹ s⁻¹. Further, the “kd improvement vs parent” value in assay [2] was 2.7 fold; in [6] it was 294 fold. In assay [3], the “pH 6.0/7.4 KD” value amounted to 0.2. In addition, the “pH 6.0/7.4 kd” value in [3] is 1.1. The “KD ratio (pH 7.4/pH 6.0)” value in assay [8] was found to be 5.73.

B2: P1-071799 (P1-070976_H95D) (antibody, human IgG1, kappa, V domains shown)
VH: QVQLVESGGGLVKPGGSLRLSCAASGFPFSDYYMSWIRQAPGKGLEWVSWISNSGEPIYYADSVKGRFTISRDNAKNSLYLQMNSLRAEDTAVYYCARDEEGWEFDLWGRGTLVTVSS
VL: EIVLTQSPATLSLSPGERATLSCRASQSVSSYLAWYQQKPGQAPRLLIYDASNRATGIPARFSGSGSGTDFTLTISSLEPEDFAVYYCQQRNNWPRTFGQGTKVEIKR
notes: IgG1.3
For B2, in [9], binding was put at a Kd of 15 nM, the dissociation rate constant (koff) was 0.027 s⁻¹ and the kon is 1.7e+06 M⁻¹ s⁻¹.

B3: VISTA.4 A64G (41F11 Vk:A64G) (antibody, human IgG1, kappa, V domains shown)
VH: QVQLVESGGGLVKPGGSLRLSCAASGFTFSDYYMSWIRQAPGKGLEWVSYISNSGSPIYYADSVKGRFTISRDNAKNSLYLQMNSLRAEDTAVYYCARDLPGWYFDLWGRGTLVTVSS
VL: EIVLTQSPATLSLSPGERATLSCRASQSVSSYLAWYQQKPGQAPRLLIYDASNRATGIPARFSGSGSGTDFTLTISSLEPEDFAVYYCQQRNNWPRTFGQGTKVEIKR
notes: IgG1.3; also called P1-061520; P1-061520-10
For B3, the Kd in assay [1] was 4.48 nM and 4.19 nM; in assay [4] it was 17.4 nM and 16.6 nM; in assay [9] it was 40 nM; in assay [10], 4 nM; in assay [5] it was 1.7 nM; in assay [7], 38 nM. Moreover, the koff in assay [1] was 0.00103 s⁻¹ and 0.00105 s⁻¹; in assay [4], 0.0403 s⁻¹ and 0.0395 s⁻¹; in assay [9], 0.033 s⁻¹; in [10] it was 0.00091 s⁻¹; in assay [5], 0.00093 s⁻¹; in [7], 0.086 s⁻¹. Also, the on-rate constant (kon) in [1] is 231000 M⁻¹ s⁻¹ and 250000 M⁻¹ s⁻¹; in [4], 2.31e+06 M⁻¹ s⁻¹ and 2.37e+06 M⁻¹ s⁻¹; in assay [9], 830000 M⁻¹ s⁻¹; in assay [10] it was 230000 M⁻¹ s⁻¹; in assay [5], 550000 M⁻¹ s⁻¹; in assay [7], 2.3e+06 M⁻¹ s⁻¹.

B4: P1-071801 (P1-070976_E97P) (antibody, human IgG1, kappa, V domains shown)
VH: QVQLVESGGGLVKPGGSLRLSCAASGFPFSDYYMSWIRQAPGKGLEWVSWISNSGEPIYYADSVKGRFTISRDNAKNSLYLQMNSLRAEDTAVYYCARHEPGWEFDLWGRGTLVTVSS
VL: EIVLTQSPATLSLSPGERATLSCRASQSVSSYLAWYQQKPGQAPRLLIYDASNRATGIPARFSGSGSGTDFTLTISSLEPEDFAVYYCQQRNNWPRTFGQGTKVEIKR
notes: IgG1.3
In assay [9], B4 registered an equilibrium dissociation constant (Kd) of 3.5 nM, a koff of 0.0016 s⁻¹ and a kon of 460000 M⁻¹ s⁻¹. In assay [10], this molecule had a dissociation constant Kd of 21 nM, a dissociation rate constant (koff) of 0.00061 s⁻¹ and a kon of 29000 M⁻¹ s⁻¹.

B5: P1-065333 (41F11_VH_T28P/Y50W/S55E/L96E/Y100E VK_A64G) (antibody, human IgG1, kappa, V domains shown)
VH: QVQLVESGGGLVKPGGSLRLSCAASGFPFSDYYMSWIRQAPGKGLEWVSWISNSGEPIYYADSVKGRFTISRDNAKNSLYLQMNSLRAEDTAVYYCARDEPGWEFDLWGRGTLVTVSS
VL: EIVLTQSPATLSLSPGERATLSCRASQSVSSYLAWYQQKPGQAPRLLIYDASNRATGIPARFSGSGSGTDFTLTISSLEPEDFAVYYCQQRNNWPRTFGQGTKVEIKR
notes: IgG1.3; also called P1-065333-1; VISTA.4 pH-independent progeny
B5: the Kd came out at 3.17 nM in assay [1]; 1.9 nM in assay [2]; 0.434 nM in assay [4]; 0.56 nM in [9]; 3.2 nM in [10]; 2.2 nM in [5]. In addition, the dissociation constant (Kd) in [6] was determined as 0.38 nM; in assay [7], 0.47 nM. Moreover, the koff in assay [1] stood at 0.000883 s⁻¹; in assay [2], 0.00093 s⁻¹; in [4] it was 0.00142 s⁻¹; in assay [9], 0.0015 s⁻¹; in assay [10], 0.00078 s⁻¹; in [5], 0.00094 s⁻¹. In addition, the koff in assay [6] was 0.0013 s⁻¹; in assay [7] it was 0.0018 s⁻¹. Besides, the kon is 278000 M⁻¹ s⁻¹ in [1]; 480000 M⁻¹ s⁻¹ in assay [2]; 3.28e+06 M⁻¹ s⁻¹ in assay [4]; 2.7e+06 M⁻¹ s⁻¹ in assay [9]; 240000 M⁻¹ s⁻¹ in assay [10]; 430000 M⁻¹ s⁻¹ in [5]. The values for the kon in assay [6] and in assay [7] were 3.4e+06 M⁻¹ s⁻¹ and 3.8e+06 M⁻¹ s⁻¹, respectively. The “kd improvement vs parent” value in assay [2] stood at 1 fold; in [6] it was 81.7 fold. The “pH 6.0/7.4 KD” value in assay [3] was determined as 0.2. In [3], the “pH 6.0/7.4 kd” value worked out at 1.4. Besides, the “KD ratio (pH 7.4/pH 6.0)” value in assay [8] was found to be 7.3.

For the origin of these results see US20220073617A1 (Five Prime, published 2022).
